Measurements: PMC10869273 (Nature Biotechnology, 2023)

Target: SARS-CoV-2 Omicron BA.1 receptor-binding domain (RBD) (SARS-CoV-2 Omicron BA.1, strain, biotin on the AviTag (expressed in the presence of BirA))

B1: REGN10987 VH R16G-V108D (antibody, V domains shown)
VH: QVQLVESGGGVVQPGGSLRLSCAASGFTFSNYAMYWVRQAPGKGLEWVAVISYDGSNKYYADSVKGRFTISRDNSKNTLYLQMNSLRTEDTAVYYCASGSDYGDYLLDYWGQGTLVTVSS
VL: QSALTQPASVSGSPGQSITISCTGTSSDVGGYNYVSWYQQHPGKAPKLMIYDVSKRPSGVSNRFSGSKSGNTASLTISGLQSEDEADYYCNSLTSISTWVFGGGTKLTVL
binding result: binds
